Experimental data published in patent US20250198990A1 (Stanford University, published 2025).
Blank lines part the entries; values can stand above or below the molecule they belong to.

Columns and labels:
[1] = target: Wild-type mouse LAG-3 domains 1 and 2 (D1D2) displayed on yeast as N-terminal fusion to Aga2 (mouse; Saccharomyces cerevisiae) (UniProt Q61790); test: yeast surface display titration, flow cytometry; monomeric D1D2 on yeast
[2] = target: the molecule itself; test: flow-FRET in Expi293 cells; self-association
Description: Flow cytometry-based Förster resonance energy transfer (flow-FRET) assays have been utilized for live cell detection of proximal protein associations at distances <100 Å and was thus used to assess LAG-3 dimerization.
Expi293F cells (ThermoFisher Scientific) were transfected with a CFP:YFP:PEI ratio of 0.5:0.5:3 in a 24-well plate at 37° C. in 8% CO₂. Cells were analyzed after 36 hours using a BD LSRII flow cytometer. The 407 nm violet laser was used to excite CFP and the 488 nm blue laser was used to excite YFP. CFP was detected using a 450/50 bandpass filter after excitation with the violet laser and YFP was detected using a 530/30 bandpass filter after excitation with the blue laser.

Kd [1]: 136 pM
Molecule: C9B7W anti-mouse LAG-3 antibody

B1: Full-length mouse LAG-3 fused to CFP or YFP, on Expi293F cells (receptor, UniProt Q61790 24-521, looked up)
chain: GPGKELPVVWAQEGAPVHLPCSLKSPNLDPNFLRRGGVIWQHQPDSGQPTPIPALDLHQGMPSPRQPAPGRYTVLSVAPGGLRSGRQPLHPHVQLEERGLQRGDFSLWLRPALRTDAGEYHATVRLPNRALSCSLRLRVGQASMIASPSGVLKLSDWVLLNCSFSRPDRPVSVHWFQGQNRVPVYNSPRHFLAETFLLLPQVSPLDSGTWGCVLTYRDGFNVSITYNLKVLGLEPVAPLTVYAAEGSRVELPCHLPPGVGTPSLLIAKWTPPGGGPELPVAGKSGNFTLHLEAVGLAQAGTYTCSIHLQGQQLNATVTLAVITVTPKSFGLPGSRGKLLCEVTPASGKERFVWRPLNNLSRSCPGPVLEIQEARLLAERWQCQLYEGQRLLGATVYAAESSSGAHSARRISGDLKGGHLVLVLILGALSLFLLVAGAFGFHWWRKQLLLRRFSALEHGIQPFPAQRKIEELERELETEMGQEPEPEPEPQLEPEPRQL
notes: whole, on cells; Two plasmids, one CFP and one YFP fusion, co-transfected for flow-FRET; also called mLAG-3^CFP; mLAG-3^YFP; not shown: CFP or YFP from pECFP / pEYFP plasmids
binding result [2]: binds
